Consider 1 molecule from publication doi:10.1101/699967 (bioRxiv, 2019).

In the experiment the target is HaloTag-Brd4-BD1_BD2-NanoLuc (aa 44-460) (human, UniProt O60885 44-460, HaloTag NanoBRET 618 fluorescent ligand on the HaloTag (experimental samples)). Put plainly: FRET or BRET. In general terms: In BRET a luciferase serves as donor, and the signal depends on an acceptor being close.

As for SGRGKGGKGLGKGGAKRHR (acetyl-lysine at 5, 8 and 16) [H4(1-19)K5/8/16-triacetyl histone peptide], the EC50 (in general, the midpoint of the concentration-response curve) came out at 7.5 ± 3.5 µM.
